# Experimental data: patent US9713649
# Molecular target: Prostate specific membrane antigen (PSMA) (UniProt Q04609)
# Test: competitive binding on LNCaP or PC3-PIP cells; displacement of 12 nM N-[N-[(S)-1,3-dicarboxypropyl]carbamoyl]-S-[3H]-methyl-L-cysteine, scintillation counting
# Chain of Prostate specific membrane antigen (PSMA) (Q04609 whole entry): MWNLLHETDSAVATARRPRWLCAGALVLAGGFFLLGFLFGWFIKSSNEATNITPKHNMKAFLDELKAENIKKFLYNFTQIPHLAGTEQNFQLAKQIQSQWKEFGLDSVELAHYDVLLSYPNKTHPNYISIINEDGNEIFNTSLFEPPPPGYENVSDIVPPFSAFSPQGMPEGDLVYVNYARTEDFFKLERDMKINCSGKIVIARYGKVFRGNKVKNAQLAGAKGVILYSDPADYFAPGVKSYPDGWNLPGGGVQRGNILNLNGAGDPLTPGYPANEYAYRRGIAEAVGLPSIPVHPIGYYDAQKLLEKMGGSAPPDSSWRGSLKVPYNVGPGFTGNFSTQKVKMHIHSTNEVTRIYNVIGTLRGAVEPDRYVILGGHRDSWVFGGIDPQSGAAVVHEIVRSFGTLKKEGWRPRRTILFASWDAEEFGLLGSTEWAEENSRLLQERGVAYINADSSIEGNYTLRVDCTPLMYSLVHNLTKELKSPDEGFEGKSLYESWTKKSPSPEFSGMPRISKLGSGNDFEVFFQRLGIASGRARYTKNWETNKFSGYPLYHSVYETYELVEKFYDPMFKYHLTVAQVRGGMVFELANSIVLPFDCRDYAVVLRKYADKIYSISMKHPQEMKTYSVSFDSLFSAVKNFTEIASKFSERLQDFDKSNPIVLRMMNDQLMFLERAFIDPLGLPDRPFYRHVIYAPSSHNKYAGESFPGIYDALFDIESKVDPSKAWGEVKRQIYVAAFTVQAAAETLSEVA
substance,measurement,value
ZJ-MCC-Ahx-dEdEdEG (Compound 1) (peptide),IC50,2.2 nM
